Measured values reported in paper PMC6391106 (2019).
Values belong to the binder of their own block, whether it stands above or below them.

Tests used:
[1] = target: T1, recombinant human WT C3(H2O) (human, UniProt P01024 23-1663); experiment: SPR; methylamine-treated C3
[2] = target: recombinant human C3(H2O) Asn1115 (human, UniProt P01024 23-1663, D1115N); experiment: SPR; methylamine-treated C3
murine C3b Asn1115 = murine C3b Asn1115 (mouse, UniProt P01027 749-1663; P01027 749-1663, D1115N); experiment: SPR
Sequence of murine C3b Asn1115 (P01027 25-666, chain 1 of 2): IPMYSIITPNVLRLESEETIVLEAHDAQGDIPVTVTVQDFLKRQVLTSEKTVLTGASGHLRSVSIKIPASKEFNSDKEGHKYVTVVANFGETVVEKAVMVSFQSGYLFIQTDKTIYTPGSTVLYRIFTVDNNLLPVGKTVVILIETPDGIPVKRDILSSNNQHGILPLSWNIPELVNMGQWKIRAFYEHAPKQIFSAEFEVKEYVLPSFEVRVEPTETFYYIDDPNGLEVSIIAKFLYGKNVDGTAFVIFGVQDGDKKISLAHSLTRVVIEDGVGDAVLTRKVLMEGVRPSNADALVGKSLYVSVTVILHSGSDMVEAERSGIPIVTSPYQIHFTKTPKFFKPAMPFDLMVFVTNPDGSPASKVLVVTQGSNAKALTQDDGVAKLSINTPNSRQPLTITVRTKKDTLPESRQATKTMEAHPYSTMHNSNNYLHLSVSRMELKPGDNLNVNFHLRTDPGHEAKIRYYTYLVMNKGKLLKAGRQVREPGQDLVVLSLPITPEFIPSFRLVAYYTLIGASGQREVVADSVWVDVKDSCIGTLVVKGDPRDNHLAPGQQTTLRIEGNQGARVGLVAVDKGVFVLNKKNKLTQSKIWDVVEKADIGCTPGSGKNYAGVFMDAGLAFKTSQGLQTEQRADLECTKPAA
Sequence of murine C3b Asn1115 (P01027 749-1663 D1115N, chain 2 of 2): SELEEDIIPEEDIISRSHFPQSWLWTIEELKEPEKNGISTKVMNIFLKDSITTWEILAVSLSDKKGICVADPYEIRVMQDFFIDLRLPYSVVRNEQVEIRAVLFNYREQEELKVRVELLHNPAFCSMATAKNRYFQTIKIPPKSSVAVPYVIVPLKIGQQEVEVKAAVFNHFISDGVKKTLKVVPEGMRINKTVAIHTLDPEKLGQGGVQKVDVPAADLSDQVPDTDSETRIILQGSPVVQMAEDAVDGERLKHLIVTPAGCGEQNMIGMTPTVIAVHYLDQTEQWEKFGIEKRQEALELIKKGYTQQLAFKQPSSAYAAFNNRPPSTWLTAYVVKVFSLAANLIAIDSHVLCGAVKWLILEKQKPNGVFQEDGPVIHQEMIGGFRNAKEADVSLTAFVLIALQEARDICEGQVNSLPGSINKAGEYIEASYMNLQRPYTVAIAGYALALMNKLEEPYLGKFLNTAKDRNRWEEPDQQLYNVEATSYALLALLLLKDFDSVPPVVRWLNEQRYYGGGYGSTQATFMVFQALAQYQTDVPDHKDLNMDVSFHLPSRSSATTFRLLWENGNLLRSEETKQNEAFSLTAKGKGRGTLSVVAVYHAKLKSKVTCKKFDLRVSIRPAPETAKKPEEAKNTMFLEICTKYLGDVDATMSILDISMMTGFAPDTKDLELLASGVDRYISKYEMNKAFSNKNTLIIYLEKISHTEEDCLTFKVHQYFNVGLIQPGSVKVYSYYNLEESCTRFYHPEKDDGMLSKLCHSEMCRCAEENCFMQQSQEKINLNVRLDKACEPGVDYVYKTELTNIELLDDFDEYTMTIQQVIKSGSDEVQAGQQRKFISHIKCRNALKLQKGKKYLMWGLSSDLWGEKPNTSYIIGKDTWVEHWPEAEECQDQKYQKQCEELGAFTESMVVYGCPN

[3] = target: T1, recombinant human WT C3(H2O); experiment: SPR

T1 sequence (P01024 23-1663): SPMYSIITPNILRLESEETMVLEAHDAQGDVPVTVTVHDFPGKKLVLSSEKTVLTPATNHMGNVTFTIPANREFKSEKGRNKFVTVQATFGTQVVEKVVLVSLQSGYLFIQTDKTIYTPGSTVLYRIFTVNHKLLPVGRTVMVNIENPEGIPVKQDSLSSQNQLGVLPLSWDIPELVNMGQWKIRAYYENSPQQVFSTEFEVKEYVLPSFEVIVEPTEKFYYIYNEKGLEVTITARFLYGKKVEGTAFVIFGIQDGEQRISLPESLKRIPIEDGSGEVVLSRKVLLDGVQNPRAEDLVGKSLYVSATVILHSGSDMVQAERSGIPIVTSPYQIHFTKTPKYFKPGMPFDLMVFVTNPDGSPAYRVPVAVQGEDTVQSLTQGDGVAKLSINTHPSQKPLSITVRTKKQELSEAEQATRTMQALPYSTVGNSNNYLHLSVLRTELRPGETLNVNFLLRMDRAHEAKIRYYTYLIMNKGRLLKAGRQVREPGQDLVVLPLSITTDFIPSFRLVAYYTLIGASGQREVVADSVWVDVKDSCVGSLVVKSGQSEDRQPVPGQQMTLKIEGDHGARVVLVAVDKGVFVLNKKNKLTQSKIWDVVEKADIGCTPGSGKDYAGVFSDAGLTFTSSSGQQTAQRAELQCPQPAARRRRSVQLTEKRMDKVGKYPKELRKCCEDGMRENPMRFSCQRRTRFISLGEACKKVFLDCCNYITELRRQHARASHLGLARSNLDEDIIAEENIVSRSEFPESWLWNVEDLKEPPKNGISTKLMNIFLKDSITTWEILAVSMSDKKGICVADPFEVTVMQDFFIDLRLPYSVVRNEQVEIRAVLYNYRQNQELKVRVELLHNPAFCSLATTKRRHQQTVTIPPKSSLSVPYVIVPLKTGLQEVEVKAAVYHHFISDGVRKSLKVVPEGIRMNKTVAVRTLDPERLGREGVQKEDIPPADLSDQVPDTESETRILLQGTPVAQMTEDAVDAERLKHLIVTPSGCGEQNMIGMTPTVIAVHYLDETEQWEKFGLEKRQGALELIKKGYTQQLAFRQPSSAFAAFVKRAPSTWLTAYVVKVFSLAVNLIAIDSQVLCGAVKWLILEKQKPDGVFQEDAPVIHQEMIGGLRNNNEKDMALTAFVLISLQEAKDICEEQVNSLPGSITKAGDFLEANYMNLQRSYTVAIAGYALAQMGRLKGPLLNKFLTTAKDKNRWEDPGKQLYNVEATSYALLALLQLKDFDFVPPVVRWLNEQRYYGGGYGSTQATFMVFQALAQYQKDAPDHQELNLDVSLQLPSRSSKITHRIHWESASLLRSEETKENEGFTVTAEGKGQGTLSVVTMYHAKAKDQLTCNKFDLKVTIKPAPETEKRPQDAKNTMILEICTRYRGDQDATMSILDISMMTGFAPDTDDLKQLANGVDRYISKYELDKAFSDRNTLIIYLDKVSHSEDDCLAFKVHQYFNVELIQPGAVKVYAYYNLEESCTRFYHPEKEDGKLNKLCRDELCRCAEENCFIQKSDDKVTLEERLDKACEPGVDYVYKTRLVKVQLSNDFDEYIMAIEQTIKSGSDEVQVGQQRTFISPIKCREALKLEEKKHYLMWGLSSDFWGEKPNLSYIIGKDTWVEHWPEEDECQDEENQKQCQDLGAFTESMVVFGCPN
Sequence of recombinant human C3(H2O) Asn1115 (P01024 23-1663 D1115N): as the sequence (P01024 23-1663) above, with D1093N counted along it

Kd [1]: 3.79 µM | Kd [2]: 6.37 µM
B1: human FH (natural protein)
chain: EDCNELPPRRNTEILTGSWSDQTYPEGTQAIYKCRPGYRSLGNVIMVCRKGEWVALNPLRKCQKRPCGHPGDTPFGTFTLTGGNVFEYGVKAVYTCNEGYQLLGEINYRECDTDGWTNDIPICEVVKCLPVTAPENGKIVSSAMEPDREYHFGQAVRFVCNSGYKIEGDEEMHCSDDGFWSKEKPKCVEISCKSPDVINGSPISQKIIYKENERFQYKCNMGYEYSERGDAVCTESGWRPLPSCEEKSCDNPYIPNGDYSPLRIKHRTGDEITYQCRNGFYPATRGNTAKCTSTGWIPAPRCTLKPCDYPDIKHGGLYHENMRRPYFPVAVGKYYSYYCDEHFETPSGSYWDHIHCTQDGWSPAVPCLRKCYFPYLENGYNQNYGRKFVQGKSIDVACHPGYALPKAQTTVTCMENGWSPTPRCIRVKTCSKSSIDIENGFISESQYTYALKEKAKYQCKLGYVTADGETSGSITCGKDGWSAQPTCIKSCDIPVFMNARTKNDFTWFKLNDTLDYECHDGYESNTGSTTGSIVCGYNGWSDLPICYERECELPKIDVHLVPDRKKDQYKVGEVLKFSCKPGFTIVGPNSVQCYHFGLSPDLPICKEQVQSCGPPPELLNGNVKEKTKEEYGHSEVVEYYCNPRFLMKGPNKIQCVDGEWTTLPVCIVEESTCGDIPELEHGWAQLSSPPYYYGDSVEFNCSESFTMIGHRSITCIHGVWTQLPQCVAIDKLKKCKSSNLIILEEHLKNKKEFDHNSNIRYRCRGKEGWIHTVCINGRWDPEVNCSMAQIQLCPPPPQIPNSHNMTTTLNYRDGEKVSVLCQENYLIQEGEEITCKDGRWQSIPLCVEKIPCSQPPQIEHGTINSSRSSQESYAHGTKLSYTCEGGFRISEENETTCYMGKWSSPPQCEGLPCKSPPEISHGVVAHMSDSYQYGEEVTYKCFEGFGIDGPAIAKCLGEKWSHPPSCIKTDCLSLPSFENAIPMGEKKDVYKAGEQVTYTCATYYKMDGASNVTCINSRWTGRPTCRDTSCVNPPTVQNAYIVSRQMSKYPSGERVRYQCRSPYEMFGDEEVMCLNGNWTEPPQCKDSTGKCGPPPPIDNGDITSFPLSVYAPASSVEYQCQNLYQLEGNKRITCRNGQWSEPPKCLHPCVISREIMENYNIALRWTAKQKLYSRTGESVEFVCKRGYRLSSRSHTLRTTCWDGKLEYPTCAKR

Kd (murine C3b Asn1115): > 17.4 µM
B2: recombinant human FH SCRs 19–20 (domain or fragment)
chain: GKCGPPPPIDNGDITSFPLSVYAPASSVEYQCQNLYQLEGNKRITCRNGQWSEPPKCLHPCVISREIMENYNIALRWTAKQKLYSRTGESVEFVCKRGYRLSSRSHTLRTTCWDGKLEYPTCAK
modifications: C3b made from plasma-purified C3 by factor B/factor D cleavage (C3a released); beta and alpha' chains disulfide-linked; thioester (Cys1010-Gln1013) hydrolysed; N-glycosylated; amine-coupled to CM5 chip

Kd [3]: 2.1 µM
B3: human membrane cofactor protein (MCP) (natural protein)
chain: CEEPPTFEAMELIGKPKPYYEIGERVDYKCKKGYFYIPPLATHTICDRNHTWLPVSDDACYRETCPYIRDPLNGQAVPANGTYEFGYQMHFICNEGYYLIGEEILYCELKGSVAIWSGKPPICEKVLCTPPPKIKNGKHTFSEVEVFEYLDAVTYSCDPAPGPDPFSLIGESTIYCGDNSVWSRAAPECKVVKCRFPVVENGKQISGFGKKFYYKATVMFECDKGFYLDGSDTIVCDSNSTWDPPVPKCLKVLPPSSTKPPALSHSVSTSSTTKSPASSASGPRPTYKPPVSNYPGYPKPEEGILDSLDVWVIAVIVIAIVVGVAVICVVPYRYLQRRKKKGTYLTDETHREVKFTSL
